Results taken from patent US7709606B2, “Interacting polypeptide comprising a heptapeptide pattern and a cellular penetration domain” (Ecole Normale Superieure de Lyon, priority 2003, dated 2010).
Residue numbers refer to the chain shown, from its start. Where two headings read alike, the source gives them in different places.

B1: SHPT-8: SUMO-1-heptapeptide-Tat PTD protein selected against Tat; heptapeptide Phe Thr Met Arg Gly Val Asp (SEQ ID NO: 38) (protein)
chain: MSDQEAKPSTEDLGDKKEGEYIKLKVIGQDSSEIHFKVKMTTHLKKLKESYCQRQGVPMNSLRFLFEGQRIADNHTPKELGMEEEDVIEVYQEQTARPPNPKKEIELGGGGSFTMRGVDPGRKKRRQRRRG
B2: SHPR-142: SUMO-1-heptapeptide-Tat PTD protein against Rev; heptapeptide Phe Trp Phe Cys Gly Leu Lys (SEQ ID NO: 2) (protein)
chain: B1 chain with T114W, M115F, R116C, V118L, D119K
modifications: left off: small tags and cut ends

Assays:
Tat = target: T1, Tat (Human immunodeficiency virus type 1 group M subtype B, UniProt P04608); assay: Tat functional test, LTR HIV-CAT reporter in HeLa cells; type: cell-based, HIV-1; details: higher concentrations
T1 construct: expressed in transfected cells; host or cells: HeLa
Method: The effect of the 4 SHPTs on the transactivation of the HIV-1 promoter by Tat was evaluated by transitory expression experiments in HeLa cells.

GST-Rev = GST-Rev (Human immunodeficiency virus type 1 group M subtype B, UniProt P04618); details: eluted with glutathione, immunoblot
Method: GXT-Rev was produced in bacteria and loaded onto an agarose-glutathion column. […] After rinsing, the proteins were eluted with glutathione. An aliquot of the feed, rinse and elution fractions was analyzed by immunoblot for GST-Rev (top graph) and for SHP using antibodies against GST or against FLAG respectively.
The SHPR activity was evaluated using the reporter construct pDM128 which included the coding sequence CAT and an RRE motif in an intron. Expression of Rev stimulated expression of CAT allowing an unspliced messenger to be exported to the cytoplasm. […] It was verified whether this inhibition was in fact directly correlated with a protein-protein interaction as predicted. To this end, both Rev and the SHPRs were produced in bacteria. […] Rev was expressed in fusion with GST and coupled to glutathione-agarose beads.

HIV-1/Ba-L = assay: antiviral test in monocyte-derived macrophages (MDM), RT activity; type: cell-based
Method: (§1) These viruses were amplified in vitro with umbilical blood mononuclear cells (UBMC) activated with PHA-P. The cell-free supernatant was centrifuged at […] for 10 minutes to eliminate soluble factors, and the residue was re-suspended in cell culture medium. Virus stocks were titrated using PBMC cells activated with PHA-P and 50% tissue culture infectious doses (TCID50) were calculated using Kärber's formula.
The MDM cells were pre-treated for 30 minutes in 6 concentrations of different molecules and infected with 30000 TCID50 of the HIV-1/Ba-L strain. AZT (0.8, 4, 20, 100 and 500 nM) and indinavir (0.8, 4, 20, 100 and 500 nM) were used as the control. […] The molecules were maintained for 7 days post infection, and the cellular supernatant was harvested 7, 14 and 21 days post infection and stored at −20° C. to measure viral replication by reverse transcriptase activity (RT) assay.
(§2) HIV replication was analyzed by assaying the RT activity in the supernatants from cell cultures using the RetroSys RT kit (Innovagen). The experiments were carried out 3 times and the results are expressed as the mean of the RT activity±the standard deviation (SD).

Rev/RRE association = Rev/RRE association (Human immunodeficiency virus type 1 group M subtype B, UniProt P04618); details: Rev produced in bacteria, RRE RNA probe
Method: To this end, gel retard experiments were carried out with a RNA molecule corresponding to the RRE element as the probe. The Rev protein produced in bacteria binds to this RNA and induces a non denaturing polyacrylamide gel migration retardation.

HIV-1-LA1 = assay: antiviral test in PHA-P activated PBMC, RT activity; type: cell-based; details: for anti-HIV activity, replication of HIV-1-LA1: PBMC activated by PHA-P, 7th day, in words; for Percentage inhibition, Mean: HIV-1 LA1, day 7
Method: as §1
PBMC cells were pre-treated for 30 minutes by 5 concentrations of each molecule and infected with 75 TCID50 of the HIV-1-LA1 strain. AZT (1.6, 8, 40, 200 and 1000 nM) and indinavir (1.6, 8, 40, 200 and 1000 nM) were used as the control. […] The molecules were maintained throughout culture, and the cellular supernatant was harvested 7 days post infection and stored at −20° C. to measure viral replication by reverse transcriptase activity (RT) assay.
as §2
In a last step, it was examined whether SHPs were actually capable of inhibiting HIV-1 replication. This was carried out in PBMCs activated by PHA-P and in MDMs. […] The effects of different SHPs was thus tested at this time. AZT and indinavir were used as controls.

Jurkat cells = assay: intracellular entry, immunofluorescence in Jurkat cells; type: cell-based; details: 2 μM for one hour, analyzed 24 h later
Method: Light transmission and fluorescence images are shown for representative cells.
The immunofluorescence tests were carried out with a primary anti-FLAG antibody in a dilution of 1:500 incubated for 2 hours and a secondary antibody coupled to the Alexa Fluor 488 fluorophore (Molecular Probes) diluted 1:1000, incubated for one hour.
To confirm that SHPs do indeed enter the cell, immunofluorescence analyses were also carried out. Jurkat cells were incubated with 1 μM of SHP for 4 hours and after washing twice, the cells were cultured for 24 hours.

Rev = Rev (Human immunodeficiency virus type 1 group M subtype B, UniProt P04618); details: HeLa cells
Method: This type of indicative construct allowed an evaluation of the effect of Rev, which by causing transport towards the cytoplasm of the non spliced RNA, allowed expression of the CAT enzyme.
The CAT activity was measured using the CAT ELISA kit (Roche).
These various mutants were tested using a transitory expression system consisting of transfecting HeLa cells of the reporter plasmid having the CAT sequence associated with the RRE in the intronic position with expression vectors for the Rev protein and the SHPR protein. […] The separation between the two values was less than 20%.
These vectors were transfected with the reporter plasmid pDM128 and the expression vector Rev as described in the above sections (and in Roisin et al, JBC (2004) 279: 9208). The quantity of CAT protein is expressed as a % of that corresponding to transfection of parental SHPR. A value of more than 100 thus indicates a negative effect on the inhibiting power of SHPR and a lower value indicates an increase in this inhibiting property.

LexNES (NES of Rev) = LexNES (NES of Rev) (Human immunodeficiency virus type 1 group M subtype B, UniProt P04618); details: in words; method not stated
[1] = MDMs, HIV-1/Ba-L, Day 7, dose 62.5 (nM)
[2] = MDMs, HIV-1/Ba-L, Day 7, dose 125 (nM)
[3] = MDMs, HIV-1/Ba-L, Day 7, dose 250 (nM)
[4] = MDMs, HIV-1/Ba-L, Day 7, dose 500 (nM)
[5] = MDMs, HIV-1/Ba-L, Day 7, dose 1000 (nM)
[6] = MDMs, HIV-1/Ba-L, Day 7, dose 2000 (nM)
[7] = MDMs, HIV-1/Ba-L, Day 14, dose 62.5 (nM)
[8] = MDMs, HIV-1/Ba-L, Day 14, dose 125 (nM)
[9] = MDMs, HIV-1/Ba-L, Day 14, dose 250 (nM)
[10] = MDMs, HIV-1/Ba-L, Day 14, dose 500 (nM)
[11] = MDMs, HIV-1/Ba-L, Day 14, dose 1000 (nM)
[12] = MDMs, HIV-1/Ba-L, Day 14, dose 2000 (nM)
[13] = MDMs, HIV-1/Ba-L, Day 21, dose 62.5 (nM)
[14] = MDMs, HIV-1/Ba-L, Day 21, dose 125 (nM)
[15] = MDMs, HIV-1/Ba-L, Day 21, dose 250 (nM)
[16] = MDMs, HIV-1/Ba-L, Day 21, dose 500 (nM)
[17] = MDMs, HIV-1/Ba-L, Day 21, dose 1000 (nM)
[18] = MDMs, HIV-1/Ba-L, Day 21, dose 2000 (nM)

LexNES (NES of Rev), sequence (P04618 70-96): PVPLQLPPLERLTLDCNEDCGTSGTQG
T1 sequence (P04608 whole entry): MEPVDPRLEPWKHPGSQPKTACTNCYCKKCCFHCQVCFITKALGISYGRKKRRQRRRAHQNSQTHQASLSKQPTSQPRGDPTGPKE

Molecule	inhibition of HIV replication (HIV-1/Ba-L; MDM, 2 μM on day 14)	Percentage inhibition, Mean (HIV-1/Ba-L; [1])	Percentage inhibition, Mean (HIV-1/Ba-L; [2])	Percentage inhibition, Mean (HIV-1/Ba-L; [3])	Percentage inhibition, Mean (HIV-1/Ba-L; [4])	Percentage inhibition, Mean (HIV-1/Ba-L; [5])	Percentage inhibition, Mean (HIV-1/Ba-L; [6])	Percentage inhibition, Mean (HIV-1/Ba-L; [7])	Percentage inhibition, Mean (HIV-1/Ba-L; [8])	Percentage inhibition, Mean (HIV-1/Ba-L; [9])	Percentage inhibition, Mean (HIV-1/Ba-L; [10])	Percentage inhibition, Mean (HIV-1/Ba-L; [11])	Percentage inhibition, Mean (HIV-1/Ba-L; [12])	Percentage inhibition, Mean (HIV-1/Ba-L; [13])	Percentage inhibition, Mean (HIV-1/Ba-L; [14])	Percentage inhibition, Mean (HIV-1/Ba-L; [15])	Percentage inhibition, Mean (HIV-1/Ba-L; [16])	Percentage inhibition, Mean (HIV-1/Ba-L; [17])	Percentage inhibition, Mean (HIV-1/Ba-L; [18])	effect on Rev/RRE association (gel retardation) (Rev/RRE association)	further results
B1	69±6%	5%	39%	78%	78%	70%	84%	0%	2%	55%	50%	46%	69%	0%	5%	37%	21%	20%	59%	no particular effect	Tat transactivation of the HIV-1 promoter (Tat): slight reduction in transactivation; co-elution with GST-Rev (GST-Rev): no SHPT was present in fractions containing GST-Rev; co-elution with GST-Rev (GST-Rev; listed as SHPR-8): did not bind to the protein on the column; ED70 (HIV-1/Ba-L; MDMs, HIV-1/Ba-L, Day 14): 2.05 µM; ED90 (HIV-1/Ba-L; MDMs, HIV-1/Ba-L, Day 14): 5.5 µM; anti-HIV activity, replication of HIV-1-LA1 (HIV-1-LA1): did not have any anti-HIV activity; Percentage inhibition, Mean (HIV-1-LA1; PBMCs, Dose 31 (nM)): 0%; Percentage inhibition, Mean (HIV-1-LA1; PBMCs, Dose 62.5 (nM)): 0%; Percentage inhibition, Mean (HIV-1-LA1; PBMCs, Dose 125 (nM)): 0%; Percentage inhibition, Mean (HIV-1-LA1; PBMCs, Dose 250 (nM)): 0%; Percentage inhibition, Mean (HIV-1-LA1; PBMCs, Dose 500 (nM)): 0%; Percentage inhibition, Mean (HIV-1-LA1; PBMCs, Dose 1000 (nM)): 0%; Percentage inhibition, Mean (HIV-1-LA1; PBMCs, Dose 2000 (nM)): 0%; immunofluorescence with antibody against FLAG (Jurkat cells): diffuse fluorescence
B2	44±10%	0%	0%	0%	0%	3%	35%	0%	0%	0%	0%	0%	44%	0%	0%	0%	0%	0%	18%	did not inhibit this association	inhibition of the function of Rev (CAT from pDM128) (Rev): effective inhibitors of the function of Rev; interaction with the NES signal of Rev (LexNES (NES of Rev)): interacts with Rev NES; inhibition of HIV replication (HIV-1/Ba-L; MDM, 1 μM): not effect; anti-HIV activity, HIV-1/Ba-L replication (HIV-1/Ba-L; MDM, in words): slight inhibition of HIV replication; anti-HIV activity, replication of HIV-1-LA1 (HIV-1-LA1): reduced replication; reduction of HIV-1 replication (HIV-1-LA1; PBMC activated with PHA-P, 2 μM): 73±6%; ED70 (HIV-1-LA1; PBMCs, HIV-1-LA1, 7th day): 2.1 µM; ED90 (HIV-1-LA1; PBMCs, HIV-1-LA1, 7th day): 4.6 µM; Percentage inhibition, Mean (HIV-1-LA1; PBMCs, Dose 31 (nM)): 0%; Percentage inhibition, Mean (HIV-1-LA1; PBMCs, Dose 62.5 (nM)): 0%; Percentage inhibition, Mean (HIV-1-LA1; PBMCs, Dose 125 (nM)): 0%; Percentage inhibition, Mean (HIV-1-LA1; PBMCs, Dose 250 (nM)): 0%; Percentage inhibition, Mean (HIV-1-LA1; PBMCs, Dose 500 (nM)): 19%; Percentage inhibition, Mean (HIV-1-LA1; PBMCs, Dose 1000 (nM)): 26%; Percentage inhibition, Mean (HIV-1-LA1; PBMCs, Dose 2000 (nM)): 73%; immunofluorescence with antibody against FLAG (Jurkat cells): diffuse fluorescence
